Measured values: publication PMC5503811

How the values were obtained:
[1] = biological target: ALDH7A1 G255D (human); test: AUC
[2] = biological target: wild-type human aldehyde dehydrogenase 7A1 (human); test: AUC

Row | Substance | Ka [1] [M⁻¹] | stoichiometry N [2]
1 | ALDH7A1 G255D (enzyme) | 750000 | 
2 | wild-type human aldehyde dehydrogenase 7A1 (enzyme) |  | 4
